Source: patent US20090286252A1 (NEW YORK UNIVERSITY, published 2009)

Legend:
[1] = target: full length cTRα (chicken) (UniProt P04625); assay: cell-based or functional assay
LexA-hGR LBD = target: T1, LexA-hGR LBD (human, UniProt P0A7C2 1-202; P04150 485-777, limits assumed); assay: yeast two-hybrid (data not shown)
T1 construct: also called LexA-GR
T1 sequence (looked up): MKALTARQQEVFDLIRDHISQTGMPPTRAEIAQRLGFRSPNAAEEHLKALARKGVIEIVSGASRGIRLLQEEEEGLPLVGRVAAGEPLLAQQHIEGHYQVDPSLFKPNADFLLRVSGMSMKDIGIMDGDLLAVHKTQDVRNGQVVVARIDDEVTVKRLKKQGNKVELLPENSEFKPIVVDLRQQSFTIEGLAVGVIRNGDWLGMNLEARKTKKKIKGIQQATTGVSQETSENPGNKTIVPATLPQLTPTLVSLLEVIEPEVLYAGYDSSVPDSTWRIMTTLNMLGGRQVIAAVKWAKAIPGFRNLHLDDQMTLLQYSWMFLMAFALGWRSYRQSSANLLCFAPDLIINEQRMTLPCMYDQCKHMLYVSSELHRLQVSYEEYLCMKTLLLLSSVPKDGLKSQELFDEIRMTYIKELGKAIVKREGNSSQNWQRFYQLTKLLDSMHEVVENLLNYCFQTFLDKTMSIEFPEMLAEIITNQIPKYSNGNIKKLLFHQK
Protocol: (§1) The following receptor baits were used: LexA-cTRα LBD, LexA-hTRβ LBD, LexA-hRARα LBD, LexA-hRXRα LBD, and LexA-hGR LBD. […] Yeast cells harboring appropriate plasmids were grown in selective media with Gal/Raf in the presence or absence of cognate ligand (1 μM T3 for TR, all trans or 9-cis RA for RAR, 9-cis RA for RXR, and 10 μM deoxycorticosterone for GR) overnight before β-galactosidase activity was assayed using o-Nitrophenyl β-D-Galactopyranoside as the substrate. β-galactosidase units are expressed as (O.D. 420 nm×1000)/(minutes of incubation×O.D. 600 nm of yeast suspension).

LexA-hRARα LBD = target: T2, LexA-hRARα LBD (human, UniProt P0A7C2 1-202; P10276 154-462, limits assumed); assay: yeast two-hybrid (data not shown)
T2 construct: also called LexA-RAR
T2 sequence (looked up): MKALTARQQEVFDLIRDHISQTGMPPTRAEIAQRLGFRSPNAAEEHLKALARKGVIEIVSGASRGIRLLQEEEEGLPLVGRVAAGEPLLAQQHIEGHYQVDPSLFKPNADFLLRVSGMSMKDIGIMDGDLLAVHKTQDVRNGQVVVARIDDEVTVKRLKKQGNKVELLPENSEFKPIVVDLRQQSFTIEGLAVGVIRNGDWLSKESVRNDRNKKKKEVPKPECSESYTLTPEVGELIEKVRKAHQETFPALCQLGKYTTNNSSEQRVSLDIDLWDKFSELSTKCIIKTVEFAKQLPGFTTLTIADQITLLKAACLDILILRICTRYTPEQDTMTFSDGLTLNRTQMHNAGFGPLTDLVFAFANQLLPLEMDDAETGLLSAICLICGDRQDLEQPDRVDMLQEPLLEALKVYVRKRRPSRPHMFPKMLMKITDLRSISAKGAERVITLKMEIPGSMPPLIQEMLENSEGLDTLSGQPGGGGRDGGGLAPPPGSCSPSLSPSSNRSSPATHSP
Protocol: as §1

LexA-cTRα LBD = target: T3, LexA-cTRα LBD (chicken, UniProt P0A7C2 1-202; P04625 120-408, limits assumed); assay: yeast two-hybrid, β-galactosidase (FIG. 8B)
T3 construct: also called LexA-TR LBD; LexA-TR
T3 sequence (looked up): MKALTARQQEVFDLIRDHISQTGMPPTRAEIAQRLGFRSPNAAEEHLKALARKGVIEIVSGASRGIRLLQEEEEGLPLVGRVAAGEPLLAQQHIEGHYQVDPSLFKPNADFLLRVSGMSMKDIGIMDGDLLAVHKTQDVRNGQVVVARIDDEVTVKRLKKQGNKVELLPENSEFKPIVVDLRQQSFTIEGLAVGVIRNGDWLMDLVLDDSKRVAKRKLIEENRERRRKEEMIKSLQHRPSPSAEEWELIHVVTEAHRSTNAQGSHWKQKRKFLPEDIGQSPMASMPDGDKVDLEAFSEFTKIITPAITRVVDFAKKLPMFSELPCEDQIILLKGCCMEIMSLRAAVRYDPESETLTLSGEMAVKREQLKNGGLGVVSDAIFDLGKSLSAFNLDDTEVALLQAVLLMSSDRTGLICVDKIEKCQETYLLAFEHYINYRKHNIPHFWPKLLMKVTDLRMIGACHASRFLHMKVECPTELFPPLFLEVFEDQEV
Protocol: as §1

LexA-hRXRα LBD = target: T4, LexA-hRXRα LBD (human, UniProt P0A7C2 1-202; P19793 198-462, limits assumed); assay: yeast two-hybrid, β-galactosidase (FIG. 8B)
T4 construct: also called LexA-RXR
T4 sequence (looked up): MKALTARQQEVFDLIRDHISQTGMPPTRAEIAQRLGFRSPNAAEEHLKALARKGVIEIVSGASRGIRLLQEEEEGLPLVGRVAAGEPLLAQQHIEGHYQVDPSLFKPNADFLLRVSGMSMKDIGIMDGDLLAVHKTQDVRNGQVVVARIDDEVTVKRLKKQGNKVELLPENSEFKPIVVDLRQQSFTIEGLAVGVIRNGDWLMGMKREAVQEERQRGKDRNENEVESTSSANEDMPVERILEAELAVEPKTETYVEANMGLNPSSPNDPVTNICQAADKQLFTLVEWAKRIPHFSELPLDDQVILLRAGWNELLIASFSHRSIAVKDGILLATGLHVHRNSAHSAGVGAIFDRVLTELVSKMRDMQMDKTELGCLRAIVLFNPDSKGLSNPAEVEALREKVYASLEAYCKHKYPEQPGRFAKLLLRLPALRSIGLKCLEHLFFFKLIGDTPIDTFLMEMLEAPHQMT
Protocol: as §1

B42-hRXRα LBD = target: T5, B42-hRXRα LBD (human, UniProt P19793 198-462); assay: yeast two-hybrid (data not shown)
T5 construct: also called B42-RXR LBD; LBD of RXR (fused with B-42)
T5 sequence (looked up): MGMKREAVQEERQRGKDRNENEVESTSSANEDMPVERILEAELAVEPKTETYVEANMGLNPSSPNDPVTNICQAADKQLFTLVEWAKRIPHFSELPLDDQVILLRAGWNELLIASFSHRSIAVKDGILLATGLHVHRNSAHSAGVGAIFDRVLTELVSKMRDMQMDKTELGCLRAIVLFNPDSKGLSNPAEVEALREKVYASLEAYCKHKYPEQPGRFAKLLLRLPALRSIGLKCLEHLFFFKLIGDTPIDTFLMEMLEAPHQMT
Protocol: as §1

B42-hRARα LBD = target: T6, B42-hRARα LBD (human, UniProt P10276 154-462); assay: yeast two-hybrid (data not shown)
T6 construct: also called B42-RAR LBD; LBD of RAR
T6 sequence (looked up): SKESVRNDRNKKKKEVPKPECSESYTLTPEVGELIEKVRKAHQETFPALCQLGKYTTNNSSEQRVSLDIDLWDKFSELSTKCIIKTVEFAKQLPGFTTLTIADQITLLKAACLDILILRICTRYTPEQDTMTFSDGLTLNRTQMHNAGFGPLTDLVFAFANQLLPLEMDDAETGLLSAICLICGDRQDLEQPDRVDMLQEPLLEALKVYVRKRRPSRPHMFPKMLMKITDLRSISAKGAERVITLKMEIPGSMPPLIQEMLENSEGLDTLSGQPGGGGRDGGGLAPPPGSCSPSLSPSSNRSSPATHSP
Protocol: as §1

B42-cTRα LBD = target: T7, B42-cTRα LBD (chicken, UniProt P04625 120-408); assay: yeast two-hybrid (data not shown)
T7 construct: also called B42-TR LBD; LBD of TR (fused with B-42)
T7 sequence (looked up): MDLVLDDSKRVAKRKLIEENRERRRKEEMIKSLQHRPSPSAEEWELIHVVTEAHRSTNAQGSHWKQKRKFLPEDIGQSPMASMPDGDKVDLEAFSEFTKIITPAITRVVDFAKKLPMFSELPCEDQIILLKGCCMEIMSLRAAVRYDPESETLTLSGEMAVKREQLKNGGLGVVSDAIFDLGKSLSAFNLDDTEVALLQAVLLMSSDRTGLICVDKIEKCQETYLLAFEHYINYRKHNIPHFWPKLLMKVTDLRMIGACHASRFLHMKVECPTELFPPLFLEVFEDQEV
Protocol: as §1

Q: How did the enhancement of TR-mediated activation of the GH-TRE-tk-CAT reporter in HeLa cells (FIG. 5B) [1] turn out when “NRIF3 (full length) (from UniProt Q13352 1-177)” was run?
A: 3.5 fold

Q: And the enhancement of TR-mediated activation of the IR-ΔMTV-CAT reporter in HeLa cells (FIG. 5A) [1]?
A: 2.5 to 3 fold

B1: β3-endonexin short form (EnS) expressed from pJG4-5 (other, not shown: large carriers)
chain: MPVKRSLKLDGLLEENSFDPSKITRKKSVITYSPTTGTCQMSLFASPTSSEEQKHRNGLSNEKRKKLNHPSLTESKESTTKDNDEFMMLLSKVEKLSEEIMEIMQNLSSIQ
notes: Yeast two-hybrid prey; also called pJG4-5/EnS
Q: Which results are given for B1?
A: binding result (LexA-hGR LBD): no binding; binding result (LexA-hRARα LBD): no binding; binding result (LexA-cTRα LBD): no binding; binding result (LexA-hRXRα LBD): no binding

B2: LexA alone (other, UniProt P0A7C2 1-202, looked up)
chain: MKALTARQQEVFDLIRDHISQTGMPPTRAEIAQRLGFRSPNAAEEHLKALARKGVIEIVSGASRGIRLLQEEEEGLPLVGRVAAGEPLLAQQHIEGHYQVDPSLFKPNADFLLRVSGMSMKDIGIMDGDLLAVHKTQDVRNGQVVVARIDDEVTVKRLKKQGNKVELLPENSEFKPIVVDLRQQSFTIEGLAVGVIRNGDWL
notes: Negative control bait; also called bait LexA alone (negative control)
Q: Does B2 bind (B42-hRXRα LBD)?
A: no binding

Q: Does B2 bind (B42-hRARα LBD)?
A: no binding

Q: Does B2 bind (B42-cTRα LBD)?
A: no binding
